Measured values as given in PMC2939071, “The Crystal Structure of Toxoplasma gondii Pyruvate Kinase 1” (PLoS ONE, 2010).

Legend:
[1] = target: T1, TgPK1 (T. gondii pyruvate kinase 1), full length (Toxoplasma gondii, UniProt Q969A2); test: lactate dehydrogenase-coupled NADH assay, Hill fit; assay type: biochemical; conditions: allosteric activator; 1 mM effector, PEP varied 0.01 to 10 mM, 2 mM ADP, 50 mM KCl, 20 mM MgCl2, pH 7.5
T1 construct: gene pk; full length Met1-Glu531, N-terminal His6 tag and TEV site, tag kept; synthetic gene, expressed in E. coli; homotetramer
T1 sequence (Q969A2 1-531): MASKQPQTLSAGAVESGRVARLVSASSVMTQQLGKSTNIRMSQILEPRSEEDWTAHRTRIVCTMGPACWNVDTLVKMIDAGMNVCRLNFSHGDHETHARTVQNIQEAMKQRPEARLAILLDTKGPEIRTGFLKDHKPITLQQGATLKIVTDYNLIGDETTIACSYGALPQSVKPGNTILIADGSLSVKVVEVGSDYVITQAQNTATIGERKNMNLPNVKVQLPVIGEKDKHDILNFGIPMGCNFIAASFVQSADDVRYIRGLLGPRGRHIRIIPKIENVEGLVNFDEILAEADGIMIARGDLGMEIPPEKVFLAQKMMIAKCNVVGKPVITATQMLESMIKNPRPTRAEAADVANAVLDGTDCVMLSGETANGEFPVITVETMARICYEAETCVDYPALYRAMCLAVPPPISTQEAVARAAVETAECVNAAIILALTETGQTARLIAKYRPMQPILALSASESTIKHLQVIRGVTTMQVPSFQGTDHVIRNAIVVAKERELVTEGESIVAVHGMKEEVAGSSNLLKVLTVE

[2] = target: Toxoplasma gondii pyruvate kinase 1, N-terminally truncated (Ile39 to Glu531) (Toxoplasma gondii); test: crystal structure; truncated TgPK1 crystallised with K+ and Mg2+; 15% PEG3350, 100 mM succinic acid pH 7.0; the asymmetric unit is a tetramer
[3] = target: Toxoplasma gondii pyruvate kinase 1, N-terminally truncated (Ile39 to Glu531) (Toxoplasma gondii); test: SEC; Superdex 200 26/60 in 10 mM HEPES pH 7.5, 500 mM NaCl; oligomeric state from the elution volume (164 mL full length, 168 mL truncated); profile not shown
[4] = target: Toxoplasma gondii pyruvate kinase 1, full length (Met1 to Glu531) (Toxoplasma gondii) (UniProt Q27006); test: as above
[5] = target: Toxoplasma gondii pyruvate kinase 1, full length (Met1 to Glu531) (Toxoplasma gondii) (UniProt Q27006); test: crystal structure; full TgPK1 crystallised without substrates, effectors or added ions; 19% PEG3350, 100 mM BisTris pH 6.0, 200 mM NH4I; the asymmetric unit is a tetramer
[6] = substrate: C=C(OP(=O)(O)O)C(=O)O; test: lactate dehydrogenase-coupled NADH assay, Hill fit; assay type: biochemical, Toxoplasma gondii; conditions: no sugar effector, cooperative (Hill), 2 mM ADP, 50 mM KCl, 20 mM MgCl2, 50 mM HEPES pH 7.5, room temperature
Text: lactate dehydrogenase-coupled NADH assay, Hill fit on TgPK1 (T. gondii pyruvate kinase 1), full length

For `O=P(O)(O)OC[C@H]1OC(O)[C@H](O)[C@@H](O)[C@@H]1O` (stereo partly shown) [G6P, glucose-6-phosphate], the “lactate dehydrogenase-coupled NADH assay, Hill fit” value [1] was “G6P showed a classic allosteric activation with a six-fold reduction in the apparent Km”.

Molecule “Toxoplasma gondii pyruvate kinase 1, N-terminally truncated (Ile39 to Glu531) (domain or fragment)” has a stoichiometry N [2] of 4 and a stoichiometry N [3] of 4.

Work on “Toxoplasma gondii pyruvate kinase 1, full length (Met1 to Glu531) (from UniProt Q27006 1-509) (enzyme)” yielded a stoichiometry N [4] of 4 and a stoichiometry N [5] of 4.

B1: TgPK1 (T. gondii pyruvate kinase 1), full length (Toxoplasma gondii) (protein)
chain: MASKQPQTLSAGAVESGRVARLVSASSVMTQQLGKSTNIRMSQILEPRSEEDWTAHRTRIVCTMGPACWNVDTLVKMIDAGMNVCRLNFSHGDHETHARTVQNIQEAMKQRPEARLAILLDTKGPEIRTGFLKDHKPITLQQGATLKIVTDYNLIGDETTIACSYGALPQSVKPGNTILIADGSLSVKVVEVGSDYVITQAQNTATIGERKNMNLPNVKVQLPVIGEKDKHDILNFGIPMGCNFIAASFVQSADDVRYIRGLLGPRGRHIRIIPKIENVEGLVNFDEILAEADGIMIARGDLGMEIPPEKVFLAQKMMIAKCNVVGKPVITATQMLESMIKNPRPTRAEAADVANAVLDGTDCVMLSGETANGEFPVITVETMARICYEAETCVDYPALYRAMCLAVPPPISTQEAVARAAVETAECVNAAIILALTETGQTARLIAKYRPMQPILALSASESTIKHLQVIRGVTTMQVPSFQGTDHVIRNAIVVAKERELVTEGESIVAVHGMKEEVAGSSNLLKVLTVE
notes: full length Met1-Glu531, N-terminal His6 tag and TEV site, tag kept; synthetic gene, expressed in E. coli; homotetramer
B1 was tested, and the Km [6] was 750 ± 51 µM and the Vmax [6] was 42 µM/min.
